Test results: article PMC3710364

Tests used:
TIAR RRM1 = molecular target: T1, TIAR RRM1 (UniProt Q01085 1-94); assay: SPR
T1 sequence: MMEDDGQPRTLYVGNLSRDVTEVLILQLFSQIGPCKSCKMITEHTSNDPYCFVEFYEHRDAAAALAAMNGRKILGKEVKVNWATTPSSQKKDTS

TIAR RRM2L [1] = molecular target: T2, TIAR RRM2L (UniProt Q01085 94-181); assay: SPR
T2 sequence: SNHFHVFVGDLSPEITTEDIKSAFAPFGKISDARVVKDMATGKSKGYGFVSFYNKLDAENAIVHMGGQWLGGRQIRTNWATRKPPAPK

TIAR RRM12S = molecular target: T3, TIAR RRM12S (UniProt Q01085 8-175); assay: SPR
T3 sequence: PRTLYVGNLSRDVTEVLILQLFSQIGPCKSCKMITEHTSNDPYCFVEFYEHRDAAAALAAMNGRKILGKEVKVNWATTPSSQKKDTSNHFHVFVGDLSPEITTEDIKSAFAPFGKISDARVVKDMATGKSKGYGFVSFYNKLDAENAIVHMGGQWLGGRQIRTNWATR

TIAR RRM2L [2] = molecular target: T2, TIAR RRM2L; assay: NMR

Binder: GGGGGGUUUUUUUUUUUUUUUUUGGGGG (ssRNA) [U-rich RNA]
- binding result (TIAR RRM1): no binding
- Kd (TIAR RRM2L [1]): 200 ± 6 nM

Binder: TTTTTTTTTTTTTTTTTTTT (ssDNA) [T-rich DNA]
- Kd (TIAR RRM2L [1]): 66 ± 3 nM
- Kd (TIAR RRM12S): 314 ± 2 nM

Binder: UUAUUU (ssRNA) [6-nt AU-rich RNA]
- binding result (TIAR RRM2L [2]): binds
